Numbering of substitutions follows the chain as printed.
Tests used:
[1] = molecular target: T1, MgrA C12S C12S (Staphylococcus aureus XN108 mgrAC12S mutant) (UniProt P0C1S0); test: EMSA; conditions: EMSA: 20 mM Hepes pH 7.6, 1 mM EDTA, 10 mM (NH4)2SO4, 30 mM KCl, 1 mM DTT, 0.2% (w/v) Tween-20, 10 uL, room temperature 1 min; 4% native PAGE
T1 sequence: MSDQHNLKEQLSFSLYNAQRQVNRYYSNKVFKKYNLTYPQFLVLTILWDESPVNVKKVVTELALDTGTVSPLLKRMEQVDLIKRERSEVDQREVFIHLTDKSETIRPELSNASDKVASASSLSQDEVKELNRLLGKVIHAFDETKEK

[2] = molecular target: T2, MgrA (Staphylococcus aureus XN108) (UniProt P0C1S0); test: EMSA; conditions: EMSA: 20 mM Hepes pH 7.6, 1 mM EDTA, 10 mM (NH4)2SO4, 30 mM KCl, 1 mM DTT, 0.2% (w/v) Tween-20, 10 uL, room temperature 1 min; 4% native PAGE
T2 sequence: T1 sequence with S12C

“GTCACACTCCATGCCATTGAGTTGTAATATATCTTTTTTAGGTATAAATGTTGTCGAATAAACAACAAGTTGTCCAAAAGATATAAATCTAAACAAGATATAGCCAGCAATTTAATATTTGTAATAGATAAAATGCTAAGTTTGATATATAATAAATTTAAGTAATTGTATAATAATATGAATTACAAACATCTAAGAAGAAACATAGGAGGCATCA (double strand) [psarV (sarV promoter probe)]” was tested, and the binding [1] was “binds more weakly” and the binding [2] was “binds”.
In the case of “GTTCGACATACCCAATGCCAAAAACATACCTATTGAAATTGACAAAATTCCAATACTAACTTTTCTAATTGAATAGCGTACTTTACTTTGTTGTTTATTCATGATGAAACACTCCTTACAATAATATACAAACATTATAACATAGTGCGCTATATATTTTAATTAAAATTTTCTTTGTTTTATAAAGCTATTGTAGGAGGTAAAATAATTAACTTGTCTTTCCAAAATATGAAAAGTGTACTAAAATTCATCGCACGACAAATAGCCCATTTCCGATACTT (double strand) [plytN (lytN promoter probe)]”, the binding [1] is reported as “binds more weakly” and the binding [2] is reported as “binds”.

From article PMC10120478
